Laboratory results published in PMC4486954, “Highly homologous proteins exert opposite biological activities by using different interaction interfaces” (Scientific Reports, 2015).

T1: iASPP Ank-SH3 (Homo sapiens, UniProt Q8WUF5)
T1 construct: (2) iASPP Ank-SH3 603-828; HLT tag (His tag + lipoyl domain + TEV site) (N, cleaved yes); made in house; host or cells: E. coli HMS 174 (Novagen)
T1 sequence (Q8WUF5 603-828): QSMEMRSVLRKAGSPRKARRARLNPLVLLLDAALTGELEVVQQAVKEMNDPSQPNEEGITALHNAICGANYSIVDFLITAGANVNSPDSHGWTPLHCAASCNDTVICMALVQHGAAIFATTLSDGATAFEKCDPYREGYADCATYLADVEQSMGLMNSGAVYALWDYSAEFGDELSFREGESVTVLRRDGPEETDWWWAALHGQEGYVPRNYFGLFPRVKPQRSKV

T2: HLT-iASPP Pro (human, UniProt Q8WUF5 1-602)
T2 construct: iASPP (human), proline rich (Pro) domain, residues 1-602 of the 828-residue protein, Swiss-Prot Q8WUF5; Cloned EcoRI/NotI into pHis parallel 2HLT; calculated Mw with tag 75.9 kDa; also called iASPP Pro 1-602; iASPP 1-602; source: E. coli Rosetta2, purified (Nickel Sepharose, size exclusion chromatography); not shown: HLT (His tag, lipoyl domain, TEV protease cleavage site), N-terminal, kept
T2 sequence (looked up): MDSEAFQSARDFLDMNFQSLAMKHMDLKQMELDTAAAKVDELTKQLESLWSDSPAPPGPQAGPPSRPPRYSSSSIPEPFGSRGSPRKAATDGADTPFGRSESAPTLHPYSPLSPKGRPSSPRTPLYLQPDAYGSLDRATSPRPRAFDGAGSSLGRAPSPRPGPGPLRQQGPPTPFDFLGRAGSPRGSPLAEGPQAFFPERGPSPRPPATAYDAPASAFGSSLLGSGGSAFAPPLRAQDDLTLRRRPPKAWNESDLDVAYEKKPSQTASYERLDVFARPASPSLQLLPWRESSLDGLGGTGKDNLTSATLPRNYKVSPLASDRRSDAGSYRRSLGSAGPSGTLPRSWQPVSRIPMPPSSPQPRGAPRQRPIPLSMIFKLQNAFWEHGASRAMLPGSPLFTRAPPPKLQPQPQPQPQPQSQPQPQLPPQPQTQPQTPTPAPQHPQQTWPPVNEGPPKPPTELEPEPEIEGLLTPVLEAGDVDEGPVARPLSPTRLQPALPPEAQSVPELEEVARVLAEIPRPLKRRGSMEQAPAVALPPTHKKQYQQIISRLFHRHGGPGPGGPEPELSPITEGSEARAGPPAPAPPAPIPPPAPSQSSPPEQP

B1: iASPP 1-478: iASPP fragment 1-478 of a previous pull down assay (protein, UniProt Q8WUF5 1-478, looked up, fragment)
chain: MDSEAFQSARDFLDMNFQSLAMKHMDLKQMELDTAAAKVDELTKQLESLWSDSPAPPGPQAGPPSRPPRYSSSSIPEPFGSRGSPRKAATDGADTPFGRSESAPTLHPYSPLSPKGRPSSPRTPLYLQPDAYGSLDRATSPRPRAFDGAGSSLGRAPSPRPGPGPLRQQGPPTPFDFLGRAGSPRGSPLAEGPQAFFPERGPSPRPPATAYDAPASAFGSSLLGSGGSAFAPPLRAQDDLTLRRRPPKAWNESDLDVAYEKKPSQTASYERLDVFARPASPSLQLLPWRESSLDGLGGTGKDNLTSATLPRNYKVSPLASDRRSDAGSYRRSLGSAGPSGTLPRSWQPVSRIPMPPSSPQPRGAPRQRPIPLSMIFKLQNAFWEHGASRAMLPGSPLFTRAPPPKLQPQPQPQPQPQSQPQPQLPPQPQTQPQTPTPAPQHPQQTWPPVNEGPPKPPTELEPEPEIEGLLTPVLEAGD
B2: iASPP 1-240: iASPP fragment 1-240 of a previous pull down assay (protein, UniProt Q8WUF5 1-240, looked up, fragment)
chain: MDSEAFQSARDFLDMNFQSLAMKHMDLKQMELDTAAAKVDELTKQLESLWSDSPAPPGPQAGPPSRPPRYSSSSIPEPFGSRGSPRKAATDGADTPFGRSESAPTLHPYSPLSPKGRPSSPRTPLYLQPDAYGSLDRATSPRPRAFDGAGSSLGRAPSPRPGPGPLRQQGPPTPFDFLGRAGSPRGSPLAEGPQAFFPERGPSPRPPATAYDAPASAFGSSLLGSGGSAFAPPLRAQDDL
B3: iASPP 249-482: iASPP fragment 249-482 of a previous pull down assay (protein, UniProt Q8WUF5 249-482, looked up, fragment)
chain: AWNESDLDVAYEKKPSQTASYERLDVFARPASPSLQLLPWRESSLDGLGGTGKDNLTSATLPRNYKVSPLASDRRSDAGSYRRSLGSAGPSGTLPRSWQPVSRIPMPPSSPQPRGAPRQRPIPLSMIFKLQNAFWEHGASRAMLPGSPLFTRAPPPKLQPQPQPQPQPQSQPQPQLPPQPQTQPQTPTPAPQHPQQTWPPVNEGPPKPPTELEPEPEIEGLLTPVLEAGDVDEG
B4: iASPP Ank-SH3 array peptide 739-753 (spot E16) (peptide)
peptide: Ac-EGYADCATYLADVEQ-{cellulose membrane (amide bond)}
modifications: also: C-terminus bound to cellulose membrane via amide
notes: source: synthetic peptide on CelluSpots array (INTAVIS)
B5: iASPP Ank-SH3 array peptide 800-814 (spot E23) (peptide)
peptide: Ac-WAALHGQEGYVPRNY-{cellulose membrane (amide bond)}
modifications: also: C-terminus bound to cellulose membrane via amide
notes: iASPP (human) residues 800-814; also called iASPP 800-814; source: synthetic peptide on CelluSpots array (INTAVIS)
B6: iASPP Ank-SH3 array peptide 764-778 (spot E19) (peptide)
peptide: Ac-YALWDYSAEFGDELS-{cellulose membrane (amide bond)}
modifications: also: C-terminus bound to cellulose membrane via amide
notes: as for B4

Tested on: HLT-iASPP Pro
Experiment: Peptide array screening: HLT-iASPP Pro binding to array of iASPP Ank-SH3 derived peptides
Parameters: species or system human
Settings: CelluSpots array, N-acetylated 15-residue peptides on cellulose; 50 mM Phosphate pH 7.0, IS = 150 mM; anti His HRP, chemiluminescence
Method: The CelluSpots^TM peptide micro-arrays were synthesized by INTAVIS Bioanalytical Instruments AG, Köln, Germany. The 15 residue peptides were acetylated at their N-termini and attached to a cellulose membrane via their C termini through an amide bond. For screening the binding of the array to HLT-iASPP Ank-SH3 the array was first washed for 4 h at room temperature with 50 mM Tris-HCl pH = 8 at an ionic strength (IS) of 150 mM adjusted by NaCl, 0.05% Tween20 and 2.5% (W/V) skimmed milk (buffer D) for blocking unspecific binding. HLT-iASPP Ank-SH3 was dissolved in 20 mM Phosphate buffer pH = 7.0 IS = 150 mM, 5 mM βME, 10% glycerol and 0.02% NaN3 and 2.5% skimmed milk. 5 ml of 5 μM of the protein were incubated with the arrays at 4 °C with shaking overnight. After three washes with TBST, the array was incubated with anti His HRP conjugated antibody at room temperature for 1 hour. The antibody was dissolved in buffer D. Then the array was washed again three times with TBST. Immunodetection was performed using chemiluminiscence (ECL reagents). Peptide array screening for binding HLT-iASPP Pro was also preformed as above with change of the proteins buffer. HLT-iASPP Pro was dissolved in 50 mM Phosphate buffer pH = 7.0, 10% glycerol, 0.02% NaN3, 0.001% Tween 20, IS = 150 mM and 2.5% skimmed milk.

binding of HLT-iASPP Pro to the peptide in the array	Molecule
bound	WAALHGQEGYVPRNY [iASPP 800-814, array peptide, iASPP Ank-SH3 residues 800-814]
bound	YALWDYSAEFGDELS [iASPP 764-778, array peptide, iASPP Ank-SH3 residues 764-778, RT loop]
bound	EGYADCATYLADVEQ [iASPP 739-753, array peptide, iASPP Ank-SH3 residues 739-753, fourth ankyrin repeat]

Target: T1, iASPP Ank-SH3
Experiment: not given
Settings: cited from earlier work
Description: iASPP 1-478 and specifically iASPP 1-240 but not iASPP 249-482 were previously shown to bind iASPP Ank-SH3 in a pull down assay. We further mapped this interaction using peptide arrays and identified the exact regions in iASPP Pro that bind iASPP Ank-SH3.

Molecule	binding to iASPP Ank-SH3 in pull down assay
B1	bind
B2	bind
B3	not

Target: T2, HLT-iASPP Pro
Experiment: peptide or protein array; CelluSpots array of 24 partly overlapping 15-residue iASPP Ank-SH3 peptides on cellulose; HLT-iASPP Pro in 50 mM phosphate pH 7.0, 10% glycerol, 0.001% Tween 20, ionic strength 150 mM, 2.5% skimmed milk; detected with anti His HRP antibody
Settings: both partners purified

binding result	Molecule
binds	B4
binds	B5
binds	B6
